Tests used:
c-CDCP1 = assay: BLI (Octet RED384)
[1] = biological target: T1, cleaved human CDCP1 on the cell surface (endogenous, PDAC cells) (human) (UniProt Q9H5V8); assay: dose-response flow cytometry on PL5 cells; PL5 cells
T1 sequence 1: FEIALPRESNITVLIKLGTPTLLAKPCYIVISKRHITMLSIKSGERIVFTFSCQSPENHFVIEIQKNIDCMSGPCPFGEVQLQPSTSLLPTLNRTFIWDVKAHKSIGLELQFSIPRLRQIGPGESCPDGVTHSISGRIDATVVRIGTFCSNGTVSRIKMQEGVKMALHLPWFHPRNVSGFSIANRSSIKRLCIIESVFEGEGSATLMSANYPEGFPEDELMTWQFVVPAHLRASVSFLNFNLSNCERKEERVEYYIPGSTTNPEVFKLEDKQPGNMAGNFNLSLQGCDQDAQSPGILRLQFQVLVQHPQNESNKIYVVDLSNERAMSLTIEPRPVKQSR
T1 sequence 2: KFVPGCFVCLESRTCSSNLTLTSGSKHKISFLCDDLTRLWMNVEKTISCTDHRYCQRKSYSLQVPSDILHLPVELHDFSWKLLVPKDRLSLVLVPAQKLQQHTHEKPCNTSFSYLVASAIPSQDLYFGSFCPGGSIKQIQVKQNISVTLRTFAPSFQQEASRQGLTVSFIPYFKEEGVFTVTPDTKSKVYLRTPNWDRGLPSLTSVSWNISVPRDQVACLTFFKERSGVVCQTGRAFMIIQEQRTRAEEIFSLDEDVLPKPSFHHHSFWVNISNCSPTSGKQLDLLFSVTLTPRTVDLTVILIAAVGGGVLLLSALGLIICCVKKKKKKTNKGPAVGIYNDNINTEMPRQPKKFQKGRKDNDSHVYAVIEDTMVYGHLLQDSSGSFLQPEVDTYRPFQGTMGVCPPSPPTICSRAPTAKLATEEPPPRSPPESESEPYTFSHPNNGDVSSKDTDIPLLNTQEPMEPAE

[2] = biological target: T2, mouse fl-CDCP1 (recombinant uncleaved mouse CDCP1) (mouse, UniProt Q5U462 30-666); assay: BLI (Octet), mouse fl-CDCP1-Fc on the sensor, IgG CL03 as analyte
T2 construct: The mouse antigen made was fl-CDCP1-Fc; also called mouse fl-CDCP1-Fc
T2 sequence: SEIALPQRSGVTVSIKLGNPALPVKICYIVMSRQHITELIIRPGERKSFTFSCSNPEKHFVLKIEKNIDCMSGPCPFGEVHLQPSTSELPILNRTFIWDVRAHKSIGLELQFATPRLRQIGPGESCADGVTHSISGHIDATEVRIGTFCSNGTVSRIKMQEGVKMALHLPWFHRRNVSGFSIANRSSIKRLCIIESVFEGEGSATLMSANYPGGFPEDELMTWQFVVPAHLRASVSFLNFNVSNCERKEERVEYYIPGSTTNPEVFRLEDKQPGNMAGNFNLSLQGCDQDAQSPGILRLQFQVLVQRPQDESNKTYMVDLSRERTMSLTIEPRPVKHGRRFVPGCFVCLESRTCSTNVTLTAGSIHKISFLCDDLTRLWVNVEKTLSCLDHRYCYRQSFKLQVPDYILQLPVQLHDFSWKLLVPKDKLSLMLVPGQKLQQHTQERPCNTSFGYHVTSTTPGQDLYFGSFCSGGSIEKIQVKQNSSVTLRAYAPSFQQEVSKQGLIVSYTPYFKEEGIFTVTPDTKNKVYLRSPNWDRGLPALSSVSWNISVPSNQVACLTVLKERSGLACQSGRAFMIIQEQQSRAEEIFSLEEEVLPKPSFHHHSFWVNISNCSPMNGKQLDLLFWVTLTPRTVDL

His-TEV-CUB1 = biological target: T3, His-TEV-CUB1 (human, UniProt Q9H5V8 30-367); assay: sandwich ELISA, CL03 as capture antibody, antigen titrated (ng/mL), anti-CDCP1 polyclonal antibody for detection
T3 construct: also called CUB1 (His-TEV-CUB1, soluble NTF); not shown: His tag and TEV site
T3 sequence: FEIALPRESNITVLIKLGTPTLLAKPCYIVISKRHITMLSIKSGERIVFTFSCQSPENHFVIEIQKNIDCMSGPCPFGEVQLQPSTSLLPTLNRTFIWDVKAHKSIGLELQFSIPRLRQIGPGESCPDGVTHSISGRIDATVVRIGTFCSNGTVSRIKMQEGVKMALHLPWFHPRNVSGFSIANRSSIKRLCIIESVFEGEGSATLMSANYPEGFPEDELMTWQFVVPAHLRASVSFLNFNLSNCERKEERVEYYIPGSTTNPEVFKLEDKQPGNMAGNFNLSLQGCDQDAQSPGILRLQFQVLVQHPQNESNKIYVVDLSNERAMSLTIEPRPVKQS
Description: (§1) CUB1 N-terminal fragment (NTF) is present only in human serum. Since CL03 binds to an epitope on CUB1 domain that is exposed upon proteolysis, CUB1 (NTF) would serve as a sink to CL03 that decreases the viable concentration of CL03 on tumor site if it binds to CUB1 only in human serum. To further investigate the binding mechanism of CL03, an ELISA experiment was performed in which the binding of CL03 to CUB1 in human serum was evaluated. ELISA assays were performed as generally described in Example 1. Briefly, either IgG CL03 or 4A06 was used as the capture antibody; the target antigens evaluated were as presented in Table 9 below; and an anti-CDCP1 polyclonal Ab was used as the detection antibody (R&D: Cat. #AF2666).

His-CUB1 = biological target: T4, His-CUB1 (human, UniProt Q9H5V8 30-367, limits assumed); assay: as above
T4 construct: also called CUB1 (His-CUB1, soluble NTF); not shown: His tag
T4 sequence: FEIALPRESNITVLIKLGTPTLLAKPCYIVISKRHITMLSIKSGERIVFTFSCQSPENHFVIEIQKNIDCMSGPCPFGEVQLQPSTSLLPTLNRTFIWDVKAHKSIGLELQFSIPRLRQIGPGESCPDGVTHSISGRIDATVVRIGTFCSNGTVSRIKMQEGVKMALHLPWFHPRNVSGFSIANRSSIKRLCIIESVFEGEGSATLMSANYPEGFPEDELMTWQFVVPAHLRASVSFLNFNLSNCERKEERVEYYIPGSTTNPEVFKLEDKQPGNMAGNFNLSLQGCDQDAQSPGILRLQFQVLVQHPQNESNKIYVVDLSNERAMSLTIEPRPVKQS
Description: as §1

Kd (c-CDCP1): 0.15 to 0.84 nM
EC50 [1]: 14.1 nM
binding result [2]: no binding (tested: not printed)
binding result (His-TEV-CUB1): no binding (tested: 1000 ng/mL)
binding result (His-CUB1): no binding (tested: 1000 ng/mL)
B1: CL03 IgG (antibody, V domains shown)
VH: EVQLVESGGGLVQPGGSLRLSCAASGFNFSSYSIHWVRQAPGKGLEWVASIYPYSGSTYYADSVKGRFTISADTSKNTAYLQMNSLRAEDTAVYYCARQSHSYYSHTWWVSYGMDYWGQGTLVTVSS
VL: DIQMTQSPSSLSASVGDRVTITCRASQSVSSAVAWYQQKPGKAPKLLIYSASSLYSGVPSRFSGSRSGTDFTLTISSLQPEDFATYYCQQSGQRPITFGQGTKVEIKR
notes: also called IgG CL03
